IntAct's records for PubMed 15933719

B1: Rab-interacting lysosomal protein (Homo sapiens), Q96NA2 (parent)
chain: MEPRRAAPGVPGWGSREAAGSASAAELVYHLAGALGTELQDLARRFGPEAAAGLVPLVVRALELLEQAAVGPAPDSLQVSAQPAEQELRRLREENERLRRELRAGPQEERALLRQLKEVTDRQRDELRAHNRDLRQRGQETEALQEQLQRLLLVNAELRHKLAAMQTQLRAAQDRERERQQPGEAATPQAKERARGQAGRPGHQHGQEPEWATAGAGAPGNPEDPAEAAQQLGRPSEAGQCRFSREEFEQILQERNELKAKVFLLKEELAYFQRELLTDHRVPGLLLEAMKVAVRKQRKKIKAKMLGTPEEAESSEDEAGPWILLSDDKGDHPPPPESKIQSFFGLWYRGKAESSEDETSSPAPSKLGGEEEAQPQSPAPDPPCSALHEHLCLGASAAPEA

Variants of: B1
Settings: with rab7a_human RAB7A

effect of a mutation on the interaction | Variant
disrupting interaction strength | MEPRRAAPGVPGWGSREAAGSASAAELVYHLAGALGTELQDLARRFGPEAAAGLVPLVVRALELLEQAAVGPAPDSLQVSAQPAEQELRRLREENERLRRELRAGPQEERALLRQLKEVTDRQRDELRAHNRDLRQRGQETEALQEQLQRLLLVNAELRHKLAAMQTQLRAAQDRERERQQPGEAATPQAKERARGQAGRPGHQHGQEPEWATAGAGAPGNPEDPAEAAQQLGRPSEAGQCRFSREEFEQIAQERNELKAKVFLLKEELAYFQRELLTDHRVPGLLLEAMKVAVRKQRKKIKAKMLGTPEEAESSEDEAGPWILLSDDKGDHPPPPESKIQSFFGLWYRGKAESSEDETSSPAPSKLGGEEEAQPQSPAPDPPCSALHEHLCLGASAAPEA [L252A]
disrupting interaction strength | MEPRRAAPGVPGWGSREAAGSASAAELVYHLAGALGTELQDLARRFGPEAAAGLVPLVVRALELLEQAAVGPAPDSLQVSAQPAEQELRRLREENERLRRELRAGPQEERALLRQLKEVTDRQRDELRAHNRDLRQRGQETEALQEQLQRLLLVNAELRHKLAAMQTQLRAAQDRERERQQPGEAATPQAKERARGQAGRPGHQHGQEPEWATAGAGAPGNPEDPAEAAQQLGRPSEAGQCRFSREEFEQALQERNELKAKVFLLKEELAYFQRELLTDHRVPGLLLEAMKVAVRKQRKKIKAKMLGTPEEAESSEDEAGPWILLSDDKGDHPPPPESKIQSFFGLWYRGKAESSEDETSSPAPSKLGGEEEAQPQSPAPDPPCSALHEHLCLGASAAPEA [I251A]
disrupting interaction strength | MEPRRAAPGVPGWGSREAAGSASAAELVYHLAGALGTELQDLARRFGPEAAAGLVPLVVRALELLEQAAVGPAPDSLQVSAQPAEQELRRLREENERLRRELRAGPQEERALLRQLKEVTDRQRDELRAHNRDLRQRGQETEALQEQLQRLLLVNAELRHKLAAMQTQLRAAQDRERERQQPGEAATPQAKERARGQAGRPGHQHGQEPEWATAGAGAPGNPEDPAEAAQQLGRPSEAGQCRFSREEFEQILQEANELKAKVFLLKEELAYFQRELLTDHRVPGLLLEAMKVAVRKQRKKIKAKMLGTPEEAESSEDEAGPWILLSDDKGDHPPPPESKIQSFFGLWYRGKAESSEDETSSPAPSKLGGEEEAQPQSPAPDPPCSALHEHLCLGASAAPEA [R255A]
disrupting interaction strength | MEPRRAAPGVPGWGSREAAGSASAAELVYHLAGALGTELQDLARRFGPEAAAGLVPLVVRALELLEQAAVGPAPDSLQVSAQPAEQELRRLREENERLRRELRAGPQEERALLRQLKEVTDRQRDELRAHNRDLRQRGQETEALQEQLQRLLLVNAELRHKLAAMQTQLRAAQDRERERQQPGEAATPQAKERARGQAGRPGHQHGQEPEWATAGAGAPGNPEDPAEAAQQLGRPSEAGQCRFSREEFEQILQERNEAKAKVFLLKEELAYFQRELLTDHRVPGLLLEAMKVAVRKQRKKIKAKMLGTPEEAESSEDEAGPWILLSDDKGDHPPPPESKIQSFFGLWYRGKAESSEDETSSPAPSKLGGEEEAQPQSPAPDPPCSALHEHLCLGASAAPEA [L258A]
disrupting interaction strength | MEPRRAAPGVPGWGSREAAGSASAAELVYHLAGALGTELQDLARRFGPEAAAGLVPLVVRALELLEQAAVGPAPDSLQVSAQPAEQELRRLREENERLRRELRAGPQEERALLRQLKEVTDRQRDELRAHNRDLRQRGQETEALQEQLQRLLLVNAELRHKLAAMQTQLRAAQDRERERQQPGEAATPQAKERARGQAGRPGHQHGQEPEWATAGAGAPGNPEDPAEAAQQLGRPSEAGQCRFSREEFEQILQERNELKAKVFLLKEELAYFQRELLTDHRVPGLLLEAMKVAVRKQRKKIKAKMAGTPEEAESSEDEAGPWILLSDDKGDHPPPPESKIQSFFGLWYRGKAESSEDETSSPAPSKLGGEEEAQPQSPAPDPPCSALHEHLCLGASAAPEA [L306A]
disrupting interaction strength | MEPRRAAPGVPGWGSREAAGSASAAELVYHLAGALGTELQDLARRFGPEAAAGLVPLVVRALELLEQAAVGPAPDSLQVSAQPAEQELRRLREENERLRRELRAGPQEERALLRQLKEVTDRQRDELRAHNRDLRQRGQETEALQEQLQRLLLVNAELRHKLAAMQTQLRAAQDRERERQQPGEAATPQAKERARGQAGRPGHQHGQEPEWATAGAGAPGNPEDPAEAAQQLGRPSEAGQCRFSREEFEQILQERNELKAKVFLLKEELAYFQRELLTDHRVPGLLLEAMKVAVRKQRKKIKAAMLGTPEEAESSEDEAGPWILLSDDKGDHPPPPESKIQSFFGLWYRGKAESSEDETSSPAPSKLGGEEEAQPQSPAPDPPCSALHEHLCLGASAAPEA [K304A]
disrupting interaction strength | MEPRRAAPGVPGWGSREAAGSASAAELVYHLAGALGTELQDLARRFGPEAAAGLVPLVVRALELLEQAAVGPAPDSLQVSAQPAEQELRRLREENERLRRELRAGPQEERALLRQLKEVTDRQRDELRAHNRDLRQRGQETEALQEQLQRLLLVNAELRHKLAAMQTQLRAAQDRERERQQPGEAATPQAKERARGQAGRPGHQHGQEPEWATAGAGAPGNPEDPAEAAQQLGRPSEAGQCRFSREEFEQILQERNELKAKVFLLKEELAYFQRELLTDHRVPGLLLEAMKVAVRKQRKKIKAKALGTPEEAESSEDEAGPWILLSDDKGDHPPPPESKIQSFFGLWYRGKAESSEDETSSPAPSKLGGEEEAQPQSPAPDPPCSALHEHLCLGASAAPEA [M305A]
